For assay [1], the target named is human CISD2 (human). Kind of assay: SEC-MALS; holo-form ([2Fe-2S] cluster bound); 100 µL at ~2 mg·mL^−1 injected on Superdex 200 increase 10/300 GL, 0.5 mL·min^−1, 50 mM sodium phosphate pH 7.5, 50 mM NaCl, 10 mM DTT; monomer or dimer. For orientation: In gel filtration, larger molecules generally elute earlier.
The target in assay [2] is human mitoNEET (human). Described as above.
Assay [3] deals with LarE from Methanococcus maripaludis (Methanococcus maripaludis). Kind of assay: SEC-MALS; holo-form ([4Fe-4S] cluster reconstituted anaerobically; analysed aerobically immediately after thawing); 100 µL at ~2 mg·mL^−1 injected on Superdex 200 increase 10/300 GL, 0.5 mL·min^−1, 25 mM HEPES pH 7.5, 300 mM NaCl, 5 mM DTT; monomer or dimer.
Assay [4] has the same target. As to the kind of experiment: SEC-MALS; apo-form (as-purified protein, <5% cluster); 100 µL at ~2 mg·mL^−1 injected on Superdex 200 increase 10/300 GL, 0.5 mL·min^−1, 25 mM HEPES pH 7.5, 300 mM NaCl, 5 mM DTT; monomer or dimer.
Assay [5] has as its target CyuA from Methanococcus maripaludis (Methanococcus maripaludis). Kind of assay: SEC-MALS; holo-form ([4Fe-4S] cluster reconstituted anaerobically; analysed aerobically immediately after thawing); 100 µL at ~2 mg·mL^−1 injected on Superdex 200 increase 10/300 GL, 0.5 mL·min^−1, 25 mM HEPES pH 7.5, 300 mM NaCl, 5 mM DTT; monomer or dimer.
The target is the same in assay [6]. As to the kind of experiment: SEC-MALS; apo-form (as-purified protein, <5% cluster); 100 µL at ~2 mg·mL^−1 injected on Superdex 200 increase 10/300 GL, 0.5 mL·min^−1, 25 mM HEPES pH 7.5, 300 mM NaCl, 5 mM DTT; monomer or dimer.

A word on the stoichiometry N: it is the number of molecules, sites or subunits per partner or assembly. With human CISD2 (domain or fragment), the stoichiometry N in assay [1] stood at 2.
human mitoNEET (domain or fragment): the stoichiometry N in assay [2] was 2.
On to “LarE from Methanococcus maripaludis (enzyme)”, for which the stoichiometry N in assay [3] and in assay [4] was 2 in each case.
As for “CyuA from Methanococcus maripaludis (enzyme)”, the stoichiometry N in assay [5] and in assay [6] was 2 throughout.

Values taken from PMC8961635.
